The source of these data is US20200199241A1 (Chugai, published 2020).

The target of one test is T1, human FcγRIa (human, UniProt P12314 16-292, limits assumed).
T1 construct: also called CD64
In words: SPR (Biacore), binding amount relative to IL6R-BF648/IL6R-L = 100.

For a further test, the target named is T2, human FcγRIIa type R (human, UniProt P12318 36-217).
T2 construct: also called FcγRIIaR; FcγRIIa(R)
T2 chain: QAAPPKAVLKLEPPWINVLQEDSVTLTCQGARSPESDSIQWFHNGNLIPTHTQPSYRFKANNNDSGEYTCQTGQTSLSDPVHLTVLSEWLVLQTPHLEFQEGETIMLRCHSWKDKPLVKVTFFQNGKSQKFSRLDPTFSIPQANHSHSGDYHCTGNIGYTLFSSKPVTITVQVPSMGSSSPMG
Described as above.

A further test deals with T3, human FcγRIIa type H (human, UniProt P12318 36-217).
T3 construct: also called FcγRIIaH; FcγRIIa(H)
T3 sequence: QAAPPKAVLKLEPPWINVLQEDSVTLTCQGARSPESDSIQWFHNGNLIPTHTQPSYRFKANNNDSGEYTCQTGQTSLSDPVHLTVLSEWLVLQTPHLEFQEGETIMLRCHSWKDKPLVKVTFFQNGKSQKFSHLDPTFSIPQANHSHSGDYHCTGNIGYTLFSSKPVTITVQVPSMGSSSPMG
The test is described as above.

A further test addresses T4, human FcγRIIb (human, UniProt P31994 43-217, limits assumed).
T4 construct: also called FcγIIB
T4 sequence: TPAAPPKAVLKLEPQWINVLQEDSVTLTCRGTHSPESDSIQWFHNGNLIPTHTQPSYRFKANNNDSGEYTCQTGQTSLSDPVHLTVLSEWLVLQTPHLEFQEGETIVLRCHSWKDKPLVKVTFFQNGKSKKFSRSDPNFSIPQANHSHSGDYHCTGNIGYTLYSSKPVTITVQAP
Described as above.

A further test deals with T5, FcγRIa (human, UniProt P12314 16-292, limits assumed).
T5 construct: also called CD64
Kind of test: SPR (Biacore), method of Example 14. For orientation: In SPR one partner is held on a chip, and binding of the other changes the refractive index at the surface.

In another test the target is T6, FcγRIIa type R (human, UniProt P12318 36-217).
T6 construct: also called FcγRIIaR; FcγRIIa(R)
T6 chain: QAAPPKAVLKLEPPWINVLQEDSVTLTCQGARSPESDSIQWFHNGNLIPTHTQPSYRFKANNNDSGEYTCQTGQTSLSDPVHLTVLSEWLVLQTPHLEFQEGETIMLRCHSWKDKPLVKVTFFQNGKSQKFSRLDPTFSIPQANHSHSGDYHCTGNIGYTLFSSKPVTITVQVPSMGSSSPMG
In words: SPR (Biacore), method of Example 14.

Another test deals with T7, FcγRIIa type H (human, UniProt P12318 36-217).
T7 construct: also called FcγRIIaH; FcγRIIa(H)
T7 sequence: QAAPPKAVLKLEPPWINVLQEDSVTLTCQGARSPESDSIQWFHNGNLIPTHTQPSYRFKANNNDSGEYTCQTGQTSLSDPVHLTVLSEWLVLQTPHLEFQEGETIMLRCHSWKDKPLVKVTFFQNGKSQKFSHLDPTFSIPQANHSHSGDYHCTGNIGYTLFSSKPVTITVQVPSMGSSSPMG
Kind of test: SPR (Biacore), method of Example 14.

Test [1] addresses T8, FcγRIIb (human, UniProt P31994 43-217, limits assumed).
T8 construct: also called FcγIIB; CD32
T8 sequence: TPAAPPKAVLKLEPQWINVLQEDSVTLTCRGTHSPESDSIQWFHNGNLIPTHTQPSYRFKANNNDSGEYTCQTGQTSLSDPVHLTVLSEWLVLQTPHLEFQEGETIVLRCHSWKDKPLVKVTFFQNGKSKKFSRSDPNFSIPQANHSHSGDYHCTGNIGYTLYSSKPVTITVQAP
Kind of test: SPR (Biacore), method of Example 14.

The next test has as its target T9, FcγRIIIa type V (human, UniProt P08637 17-208, limits assumed).
T9 construct: also called FcγRIIIaV; FcγRIIIa(V)
Kind of test: SPR (Biacore), method of Example 14.

For test [2], the target named is T8, FcγRIIb. In words: ratio of SPR KD values, parent IL6R-B3/IL6R-L.
Source text: Furthermore, KD(IIaR)/KD(IIb) and KD(IIaH)/KD(IIb) in the table respectively represent the value obtained by dividing the KD value of each variant for FcγRIIaR by the KD value of each variant for FcγRIIb, and the value obtained by dividing the KD value of each variant for FcγRIIaH by the KD value of each variant for FcγRIIb. KD(IIb) of the parent polypeptide/KD(IIb) of the altered polypeptide refers to the value obtained by dividing the KD value of the parent polypeptide for FcγRIIb by the KD value of each variant for FcγRIIb.

T1 sequence (P12314 16-292 limits assumed): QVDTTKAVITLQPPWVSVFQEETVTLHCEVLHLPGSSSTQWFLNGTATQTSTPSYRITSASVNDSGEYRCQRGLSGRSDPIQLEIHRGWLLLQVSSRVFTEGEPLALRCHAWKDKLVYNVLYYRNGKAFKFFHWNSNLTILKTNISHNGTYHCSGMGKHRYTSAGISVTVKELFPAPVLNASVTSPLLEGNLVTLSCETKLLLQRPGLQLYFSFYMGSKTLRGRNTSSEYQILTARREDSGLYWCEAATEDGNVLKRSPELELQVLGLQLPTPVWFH
T9 sequence (P08637 17-208 F176V limits assumed): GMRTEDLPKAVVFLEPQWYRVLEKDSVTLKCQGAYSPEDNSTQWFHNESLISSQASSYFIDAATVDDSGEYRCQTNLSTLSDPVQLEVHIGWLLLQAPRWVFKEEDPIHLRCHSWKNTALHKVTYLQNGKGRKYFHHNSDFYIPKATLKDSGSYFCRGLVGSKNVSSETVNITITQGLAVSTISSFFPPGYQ
T5 sequence (P12314 16-292 limits assumed): as the sequence (P12314 16-292 limits assumed) above

B1: IL6R-BP126/IL6R-L (antibody, human IgG1)
heavy: QVQLQESGPGLVKPSETLSLTCAVSGHSISHDHAWSWVRQPPGEGLEWIGFISYSGITNYNPSLQGRVTISRDNSKNTLYLQMNSLRAEDTAVYYCARSLARTTAMDYWGEGTLVTVSSASTKGPSVFPLAPSSKSTSGGTAALGCLVKDYFPEPVTVSWNSGALTSGVHTFPAVLQSSGLYSLSSVVTVPSSSLGTQTYICNVNHKPSNTKVDKKVEPKSCDKTHTCPPCPAPELLGGDSVFLFPPKPKDTLMISRTPEVTCVVVDVSHEDPEVKFNWYVDGVEVHNAKTKPREEQYNSTYRVVSVLTVLHQDWLNGKEYKCKVSNLALPAPIEKTISKAKGQPREPQVYTLPPSRDELTKNQVSLTCLVKGFYPSDIAVEWESNGQPENNYKTTPPVLDSDGSFFLYSKLTVDKSRWQQGNVFSCSVMHEALHNHYTQESLSLSP
light: DIQMTQSPSSLSASVGDRVTITCRASQDISSYLNWYQQKPGKAPKLLIYYTSRLHSGVPSRFSGSGSGTDFTFTISSLQPEDIATYYCQQGNTLPYTFGQGTKVEIK
notes: Alteration introduced into IL6R-B3; also called P238D/K326L
With B1, the relative binding stood at 113 with human FcγRIa, 167 in the test with human FcγRIIa type R, 132 with human FcγRIIa type H and 103 with human FcγRIIb.

B2: IL6R-BP142/IL6R-L (antibody, human IgG1)
heavy: QVQLQESGPGLVKPSETLSLTCAVSGHSISHDHAWSWVRQPPGEGLEWIGFISYSGITNYNPSLQGRVTISRDNSKNTLYLQMNSLRAEDTAVYYCARSLARTTAMDYWGEGTLVTVSSASTKGPSVFPLAPSSKSTSGGTAALGCLVKDYFPEPVTVSWNSGALTSGVHTFPAVLQSSGLYSLSSVVTVPSSSLGTQTYICNVNHKPSNTKVDKKVEPKSCDKTHTCPPCPAPELLGGDSVFLFPPKPKDTLMISRTPEVTCVVVDVSHEDPEVKFNWYVDGVEVHNAKTKPREEQYNSTYRVVSVLTVLHQDWLNGKEYKCKVSNNALPAPIEKTISKAKGQPREPQVYTLPPSRDELTKNQVSLTCLVKGFYPSDIAVEWESNGQPENNYKTTPPVLDSDGSFFLYSKLTVDKSRWQQGNVFSCSVMHEALHNHYTQESLSLSP
light: DIQMTQSPSSLSASVGDRVTITCRASQDISSYLNWYQQKPGKAPKLLIYYTSRLHSGVPSRFSGSGSGTDFTFTISSLQPEDIATYYCQQGNTLPYTFGQGTKVEIK
notes: Alteration introduced into IL6R-B3; also called P238D/K326N
B2: the relative binding with human FcγRIa amounted to 98; with human FcγRIIa type R, 103; with human FcγRIIa type H, 97; with human FcγRIIb it was 106.

B3: IL6R-BP207/IL6R-L (antibody, human IgG1)
heavy: QVQLQESGPGLVKPSETLSLTCAVSGHSISHDHAWSWVRQPPGEGLEWIGFISYSGITNYNPSLQGRVTISRDNSKNTLYLQMNSLRAEDTAVYYCARSLARTTAMDYWGEGTLVTVSSASTKGPSVFPLAPSSKSTSGGTAALGCLVKDYFPEPVTVSWNSGALTSGVHTFPAVLQSSGLYSLSSVVTVPSSSLGTQTYICNVNHKPSNTKVDKKVEPKSCDKTHTCPPCPAPDLLGGDSVFLFPPKPKDTLMISRTPEVTCVVVDVSHEDPEVKFNWYVDGVEVHNAKTKPREEQYNSTYRVVSVLTVLHQDWLNGKEYKCKVSNKALPRPIEKTISKAKGQPREPQVYTLPPSRDELTKNQVSLTCLVKGFYPSDIAVEWESNGQPENNYKTTPPVLDSDGSFFLYSKLTVDKSRWQQGNVFSCSVMHEALHNHYTQESLSLSP
light: DIQMTQSPSSLSASVGDRVTITCRASQDISSYLNWYQQKPGKAPKLLIYYTSRLHSGVPSRFSGSGSGTDFTFTISSLQPEDIATYYCQQGNTLPYTFGQGTKVEIK
notes: Anti-IL-6R human IgG1 variant; copies: 2 + 2
On to B3, for which the Kd with FcγRIa is 0.022 µM; in the test with FcγRIIa type R, 19 µM; with FcγRIIa type H it was 29 µM; in the test with FcγRIIb [1] it was 0.84 µM; with FcγRIIIa type V, 65 µM. Further, the “KD(IIb) of the parent polypeptide/KD(IIb) of altered polypeptide” value with FcγRIIb [2] is 3.7 fold.

B4: IL6R-BP911/IL6R-L (antibody, human IgG1)
heavy: QVQLQESGPGLVKPSETLSLTCAVSGHSISHDHAWSWVRQPPGEGLEWIGFISYSGITNYNPSLQGRVTISRDNSKNTLYLQMNSLRAEDTAVYYCARSLARTTAMDYWGEGTLVTVSSASTKGPSVFPLAPSSKSTSGGTAALGCLVKDYFPEPVTVSWNSGALTSGVHTFPAVLQSSGLYSLSSVVTVPSSSLGTQTYICNVNHKPSNTKVDKKVEPKSCDKTHTCPPCPAPELLGGDSVFLFPPKPKDTLMISRTPEVTCVVVDVSHEDPEVKFNWYVDGVEVHNAKTKPREEQYNSTYRVVSVLTVLHQDWLNGKEYKCKVSNKALPKPIEKTISKAKGQPREPQVYTLPPSRDELTKNQVSLTCLVKGFYPSDIAVEWESNGQPENNYKTTPPVLDSDGSFFLYSKLTVDKSRWQQGNVFSCSVMHEALHNHYTQESLSLSP
light: DIQMTQSPSSLSASVGDRVTITCRASQDISSYLNWYQQKPGKAPKLLIYYTSRLHSGVPSRFSGSGSGTDFTFTISSLQPEDIATYYCQQGNTLPYTFGQGTKVEIK
notes: Alteration introduced into IL6R-B3; also called P238D/A330K
Take B4: the relative binding was 52 with human FcγRIa, 101 with human FcγRIIa type R, 108 in the test with human FcγRIIa type H and 119 with human FcγRIIb.

B5: IL6R-BP198/IL6R-L (antibody, human IgG1)
heavy: QVQLQESGPGLVKPSETLSLTCAVSGHSISHDHAWSWVRQPPGEGLEWIGFISYSGITNYNPSLQGRVTISRDNSKNTLYLQMNSLRAEDTAVYYCARSLARTTAMDYWGEGTLVTVSSASTKGPSVFPLAPSSKSTSGGTAALGCLVKDYFPEPVTVSWNSGALTSGVHTFPAVLQSSGLYSLSSVVTVPSSSLGTQTYICNVNHKPSNTKVDKKVEPKSCDKTHTCPPCPAPDYLGGDSVFLFPPKPKDTLMISRTPEVTCVVVDVSDEDGEVKFNWYVDGVEVHNAKTKPREEQYNSTYRVVSVLTVLHQDWLNGKEYKCKVSNAALPKPIEKTISKAKGQPREPQVYTLPPSRDELTKNQVSLTCLVKGFYPSDIAVEWESNGQPENNYKTTPPVLDSDGSFFLYSKLTVDKSRWQQGNVFSCSVMHEALHNHYTQESLSLSP
light: DIQMTQSPSSLSASVGDRVTITCRASQDISSYLNWYQQKPGKAPKLLIYYTSRLHSGVPSRFSGSGSGTDFTFTISSLQPEDIATYYCQQGNTLPYTFGQGTKVEIK
notes: as for B3
For B5, the Kd in the test with FcγRIa was determined as 0.011 µM; with FcγRIIa type H, 20 µM; in the test with FcγRIIb [1] it was 0.2 µM; with FcγRIIIa type V it was 44 µM. In the test with FcγRIIb [2], the “KD(IIb) of the parent polypeptide/KD(IIb) of altered polypeptide” value came out at 15.7 fold.

B6: IL6R-BP136/IL6R-L (antibody, human IgG1)
heavy: QVQLQESGPGLVKPSETLSLTCAVSGHSISHDHAWSWVRQPPGEGLEWIGFISYSGITNYNPSLQGRVTISRDNSKNTLYLQMNSLRAEDTAVYYCARSLARTTAMDYWGEGTLVTVSSASTKGPSVFPLAPSSKSTSGGTAALGCLVKDYFPEPVTVSWNSGALTSGVHTFPAVLQSSGLYSLSSVVTVPSSSLGTQTYICNVNHKPSNTKVDKKVEPKSCDKTHTCPPCPAPELLGGDSVFLFPPKPKDTLMISRTPEVTCVVVDVSHEDPEVKFNWYVDGVEVHNAKTKPREEQYNSTYRVVSVLTVLHQDWLNGKEYKCKVSNAALPAPIEKTISKAKGQPREPQVYTLPPSRDELTKNQVSLTCLVKGFYPSDIAVEWESNGQPENNYKTTPPVLDSDGSFFLYSKLTVDKSRWQQGNVFSCSVMHEALHNHYTQESLSLSP
light: DIQMTQSPSSLSASVGDRVTITCRASQDISSYLNWYQQKPGKAPKLLIYYTSRLHSGVPSRFSGSGSGTDFTFTISSLQPEDIATYYCQQGNTLPYTFGQGTKVEIK
notes: Alteration introduced into IL6R-B3; also called P238D/K326A
For B6, the relative binding with human FcγRIa amounted to 117; with human FcγRIIa type R it was 159; in the test with human FcγRIIa type H it was 103; in the test with human FcγRIIb, 119.

As a reminder, the Kd is a measure of binding affinity in units of concentration. A low value points to tighter binding.
